Experimental data taken from patent publication US20230287338A1 (MINERVA BIOTECHNOLOGIES, published 2023).
One block for each binder: values may come before it. Groups on a side chain read outwards from the residue. No end group written: not given here. maleimide = maleimide group on the activated BSA carrier, coupling the C-terminal Cys

What was measured:
[1] = target: T1, NME7-AB (recombinant human NME7 comprising essentially the NDPK A and B domains, expressed in E. coli) (human, UniProt Q9Y5B8 92-376); assay: sandwich ELISA, NME7-AB held on plate-bound PSMGFR, detection with streptavidin
T1 construct: Monomeric; purified over NTA-Ni and by size exclusion; the purification described uses Ni-NTA; also called recombinant NME7; NME7 (NME7-AB construct); not shown: a Strep Tag II version was al
T1 sequence: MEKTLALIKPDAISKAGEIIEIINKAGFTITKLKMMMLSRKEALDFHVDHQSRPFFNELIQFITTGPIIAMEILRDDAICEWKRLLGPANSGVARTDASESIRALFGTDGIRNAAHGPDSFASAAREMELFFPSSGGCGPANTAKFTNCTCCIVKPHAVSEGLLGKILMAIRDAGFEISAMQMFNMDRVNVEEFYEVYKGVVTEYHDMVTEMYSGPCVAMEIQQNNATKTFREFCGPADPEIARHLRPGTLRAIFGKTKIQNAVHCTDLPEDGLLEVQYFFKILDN
Procedure: (§1) The PSMGFR peptide bearing a C-terminal Cysteine (PSMGFR-Cys) was covalently coupled to BSA using Inject Maleimide activated BSA kit (Thermo Fisher). PSMGFR-Cys coupled BSA was diluted to 10 ug/mL in 0.1M carbonate/bicarbonate buffer pH 9.6 and 50 uL was added to each well of a 96 well plate. After overnight incubation at 4° C., the plate was wash twice with PBS-T and a 3% BSA solution was added to block remaining binding site on the well. After 1 h at RT the plate was washed twice with PBS-T and NME7, diluted in PBS-T+1% BSA, was added at different concentrations. After 1 h at RT the plate was washed 3× with PBS-T and anti-NM23-H7 (B-9, Santa Cruz Biotechnology), diluted in PBS-T+1% BSA, was added at 1/500 dilution. […] After 1 h at RT the plate was washed 3× with PBS-T and binding of NME7 was measured at 415 nm using a ABTS solution (Pierce). […]
(§2) After 1 h at RT the plate was washed 3× with PBS-T and HisTagged PSMGFR peptide (PSMGFR-His) or biotinylated PSMGFR peptide (PSMGFR-biotin), diluted in PBS-T+1% BSA, was added at different concentration. […] After 1 h at RT the plate was washed 3× with PBS-T and binding of PSMGFR peptide to NME7 already bound to another PSMGFR peptide (which could not signal by anti-His antibody or by streptavidin) coupled BSA was measured at 415 nm using a ABTS solution (Pierce).

[2] = target: T1, NME7-AB (recombinant human NME7 …); assay: ELISA, carrier-coupled PSMGFR-Cys on plate
Procedure: The PSMGFR peptide bearing a C-terminal Cysteine (PSMGFR-Cys) was covalently coupled to BSA using Inject Maleimide activated BSA kit (Thermo Fisher). PSMGFR-Cys coupled BSA was diluted to 10 ug/mL in 0.1M carbonate/bicarbonate buffer pH 9.6 and 50 uL was added to each well of a 96 well plate. After overnight incubation at 4° C., the plate was wash twice with PBS-T and a 3% BSA solution was added to block remaining binding site on the well. After 1 h at RT the plate was washed twice with PBS-T and NME7, diluted in PBS-T+1% BSA, was added at different concentrations. After 1 h at RT the plate was washed 3× with PBS-T and anti-NM23-H7 (B-9, Santa Cruz Biotechnology), diluted in PBS-T+1% BSA, was added at 1/500 dilution. After 1 h at RT the plate was washed 3× with PBS-T and goat anti mouse-HRP, diluted in PBS-T+1% BSA, was added at 1/3333 dilution. After 1 h at RT the plate was washed 3× with PBS-T and binding of NME7 was measured at 415 nm using a ABTS solution (Pierce).

[3] = target: T1, NME7-AB (recombinant human NME7 …); assay: gold nanoparticle aggregation assay
Procedure: Gold nanoparticles of a diameter of 30.0 nm were coated with an NTA-SAM surface according to Thompson et al. (ACS Appl. Mater. Interfaces, 2011, 3 (8), pp 2979-2987). The NTA-SAM coated gold nanoparticles were then activated with an equal volume of 180 uM NiSO₄, incubated for 10 min at room temperature, washed, and resuspended in a 10 mM phosphate buffer (pH 7.4). The gold nanoparticles were then loaded with PSMGFR N-10 peptide ([…]-HHHHHH (SEQ ID NO:112)) at 0.5 uM final concentration, and incubated at room temperature for 10 min Recombinant NME7-AB protein expressed and purified from E. coli was added free in solution at the concentrations indicated. When particle-immobilized proteins bind to each other, or simultaneously bind to two different peptides on two different particles, the particle solution color changes from pink/red to purple/blue. If the protein added free in solution causes particle aggregation, it is strong evidence that the free protein dimerizes the cognate peptide, since binding to a single peptide would not induce two or more particles to be brought into close proximity to each other.
The NME7-AB is added free in solution at the concentrations indicated. Solution color change from pink to purple/blue from particle aggregation indicates binding between the MUC* peptide on the particles and NME7 free in solution. […]

[4] = target: T1, NME7-AB (recombinant human NME7 …); assay: sandwich ELISA, NME7-AB held on plate-bound PSMGFR, detection with HRP labeled anti-His-tag antibody
Procedure: as §1, §2

binding result [1]: binds
B1: biotinylated PSMGFR peptide (PSMGFR-biotin) (peptide)
peptide: GTINVHDVETQFNQYKTEAASRYNLTISDVSVSDVPFPFSAQSGA
modifications: also: biotinylated (position not given here)
notes: also called second MUC1* peptide with biotin

binding result [2]: binds
B2: PSMGFR peptide bearing a C-terminal Cysteine (PSMGFR-Cys) coupled to BSA (peptide)
peptide: GTINVHDVETQFNQYKTEAASRYNLTISDVSVSDVPFPFSAQSGAC([maleimide-BSA])
modifications: not fully specified
notes: Coated on the ELISA plate; also called PSMGFR-Cys coupled BSA; first MUC1* peptide of the sandwich ELISA

binding result [3]: binds
B3: PSMGFR N-10 peptide (His-tagged) (peptide)
peptide: QFNQYKTEAASRYNLTISDVSVSDVPFPFSAQSGAHHHHHH
notes: loaded on NTA-Ni-SAM coated gold nanoparticles; also called N-10 PSMGFR peptide; MUC1* peptide on NTA-Ni-SAM nanoparticles

binding result [4]: binds
B4: histidine-tagged MUC1* extra cellular domain peptide (His-tagged PSMGFR sequence) (peptide)
peptide: GTINVHDVETQFNQYKTEAASRYNLTISDVSVSDVPFPFSAQSGAHHHHHH
notes: also called PSMGFR-His; HisTagged PSMGFR peptide
